Assay results from patent US20240366726A1 (Genentech, published 2024).
Numbering of substitutions follows the chain as printed. Each block holds one binder with its values, some of them ahead of it.

Legend:
[1] = biological target: T1, human CD122/CD132 on lymphocytes (NK cells and CD8+ T cells in human PBMCs) (human, UniProt P31785 23-369); assay: cell-based or functional assay
T1 sequence 1: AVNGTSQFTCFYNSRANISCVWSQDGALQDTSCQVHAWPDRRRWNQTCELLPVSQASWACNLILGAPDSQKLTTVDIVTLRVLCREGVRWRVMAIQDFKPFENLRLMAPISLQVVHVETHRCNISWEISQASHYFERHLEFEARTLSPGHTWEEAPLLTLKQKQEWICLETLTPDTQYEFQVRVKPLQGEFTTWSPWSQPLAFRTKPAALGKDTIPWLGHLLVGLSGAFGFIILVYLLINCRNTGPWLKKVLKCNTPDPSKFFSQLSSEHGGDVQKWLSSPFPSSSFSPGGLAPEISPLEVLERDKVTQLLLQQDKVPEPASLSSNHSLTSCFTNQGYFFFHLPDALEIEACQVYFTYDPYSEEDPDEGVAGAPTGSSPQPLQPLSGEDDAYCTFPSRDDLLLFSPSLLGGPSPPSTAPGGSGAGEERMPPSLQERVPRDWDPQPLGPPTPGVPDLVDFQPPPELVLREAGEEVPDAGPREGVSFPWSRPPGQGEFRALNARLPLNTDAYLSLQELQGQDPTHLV
T1 sequence 2: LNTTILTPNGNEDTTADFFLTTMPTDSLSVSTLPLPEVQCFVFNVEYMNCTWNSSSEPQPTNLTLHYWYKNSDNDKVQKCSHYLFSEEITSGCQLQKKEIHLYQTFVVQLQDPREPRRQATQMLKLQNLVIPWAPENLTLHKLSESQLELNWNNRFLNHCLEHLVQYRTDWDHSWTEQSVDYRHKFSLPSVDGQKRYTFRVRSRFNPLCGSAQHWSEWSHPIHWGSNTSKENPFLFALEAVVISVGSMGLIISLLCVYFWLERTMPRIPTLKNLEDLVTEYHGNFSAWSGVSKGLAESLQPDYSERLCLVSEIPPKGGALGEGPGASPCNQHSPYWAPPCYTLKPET

[2] = biological target: T2, cynomolgus monkey CD122/CD132 on lymphocytes (NK cells and CD8+ T cells in cynomolgus monkey PBMCs) (cynomolgus monkey, UniProt Q38J85 27-551; A0A2K5VGJ6 23-369); assay: cell-based or functional assay
T2 sequence (looked up) 1: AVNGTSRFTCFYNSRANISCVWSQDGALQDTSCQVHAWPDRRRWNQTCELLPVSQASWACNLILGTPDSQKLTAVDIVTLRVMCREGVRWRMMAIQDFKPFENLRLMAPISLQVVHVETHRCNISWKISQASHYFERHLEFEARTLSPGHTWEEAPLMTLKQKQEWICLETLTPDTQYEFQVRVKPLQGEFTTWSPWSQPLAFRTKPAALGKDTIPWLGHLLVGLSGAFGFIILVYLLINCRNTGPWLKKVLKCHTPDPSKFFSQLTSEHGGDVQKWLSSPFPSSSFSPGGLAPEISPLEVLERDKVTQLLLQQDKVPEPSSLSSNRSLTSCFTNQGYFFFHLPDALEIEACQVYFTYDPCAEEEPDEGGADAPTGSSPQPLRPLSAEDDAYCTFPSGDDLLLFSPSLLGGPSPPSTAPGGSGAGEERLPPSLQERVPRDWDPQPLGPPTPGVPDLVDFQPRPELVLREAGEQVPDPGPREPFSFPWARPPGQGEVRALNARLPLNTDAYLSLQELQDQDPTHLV
T2 sequence (looked up) 2: T1 sequence 2 with T14A, A16T, T22S, H141R, T228S, A326P

[3] = biological target: human complement component 1q (C1q) (human, UniProt P02745 23-245; P02746 28-253; P02747 29-245); assay: BLI; tested as XENP24306+XENP32803
[4] = biological target: T3, human FcRn (human, UniProt P55899 24-297; P61769 21-119); assay: Bio-Layer Interferometry, pH 6.0; tested as ~82%/~18% mixture
T3 construct: also called neonatal Fc receptor

[5] = biological target: T4, cynomolgus monkey FcRn (cynomolgus monkey, UniProt Q8SPV9 24-297; Q8SPW0 21-119); assay: as above
T4 construct: also called neonatal Fc receptor

[6] = biological target: T5, mouse FcRn (mouse, UniProt Q61559 22-297; P01887 21-119); assay: as above
T5 construct: also called neonatal Fc receptor
T5 sequence (looked up): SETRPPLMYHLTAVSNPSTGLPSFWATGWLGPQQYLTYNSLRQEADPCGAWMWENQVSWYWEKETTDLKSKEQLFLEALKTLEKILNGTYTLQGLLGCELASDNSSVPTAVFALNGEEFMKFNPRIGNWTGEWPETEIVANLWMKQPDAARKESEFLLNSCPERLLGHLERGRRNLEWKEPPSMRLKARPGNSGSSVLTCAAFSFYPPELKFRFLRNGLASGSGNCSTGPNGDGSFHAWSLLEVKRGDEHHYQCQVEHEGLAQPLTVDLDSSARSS
T5 sequence (b2m, looked up): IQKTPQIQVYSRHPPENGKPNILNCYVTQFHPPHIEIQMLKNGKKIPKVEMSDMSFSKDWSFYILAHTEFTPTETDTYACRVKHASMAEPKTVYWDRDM

Chain of human complement component 1q (C1q) (P02745 23-245 limits assumed, chain 1 of 3): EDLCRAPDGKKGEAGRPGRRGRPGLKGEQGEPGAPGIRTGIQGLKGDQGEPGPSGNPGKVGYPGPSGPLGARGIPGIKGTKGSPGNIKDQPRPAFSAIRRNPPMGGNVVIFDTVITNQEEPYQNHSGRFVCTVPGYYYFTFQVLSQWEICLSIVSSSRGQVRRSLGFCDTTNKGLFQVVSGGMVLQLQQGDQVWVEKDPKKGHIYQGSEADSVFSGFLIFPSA
Chain of human complement component 1q (C1q) (P02746 28-253 limits assumed, chain 2 of 3): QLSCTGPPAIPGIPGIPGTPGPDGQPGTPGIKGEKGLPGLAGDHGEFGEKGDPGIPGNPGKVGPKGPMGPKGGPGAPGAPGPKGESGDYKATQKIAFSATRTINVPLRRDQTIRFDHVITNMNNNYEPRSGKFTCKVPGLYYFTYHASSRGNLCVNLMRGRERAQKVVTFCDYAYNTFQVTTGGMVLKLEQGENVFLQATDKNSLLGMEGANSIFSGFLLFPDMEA
Chain of human complement component 1q (C1q) (P02747 29-245 limits assumed, chain 3 of 3): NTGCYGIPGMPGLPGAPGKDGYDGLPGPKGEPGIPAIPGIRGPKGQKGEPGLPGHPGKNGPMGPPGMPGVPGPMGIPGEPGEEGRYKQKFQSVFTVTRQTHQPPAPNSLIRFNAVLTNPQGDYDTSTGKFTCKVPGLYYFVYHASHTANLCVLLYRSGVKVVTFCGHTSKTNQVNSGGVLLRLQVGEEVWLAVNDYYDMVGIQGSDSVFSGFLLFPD
T4 sequence (Q8SPV9 24-297 limits assumed, chain 1 of 2): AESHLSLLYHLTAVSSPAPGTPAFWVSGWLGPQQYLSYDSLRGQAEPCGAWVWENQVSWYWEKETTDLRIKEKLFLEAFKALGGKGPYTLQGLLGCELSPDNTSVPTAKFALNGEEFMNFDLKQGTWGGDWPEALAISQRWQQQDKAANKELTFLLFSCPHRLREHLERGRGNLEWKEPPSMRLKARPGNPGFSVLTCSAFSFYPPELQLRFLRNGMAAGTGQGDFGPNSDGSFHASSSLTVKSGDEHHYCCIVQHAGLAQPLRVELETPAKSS
T4 sequence (Q8SPW0 21-119 limits assumed, chain 2 of 2): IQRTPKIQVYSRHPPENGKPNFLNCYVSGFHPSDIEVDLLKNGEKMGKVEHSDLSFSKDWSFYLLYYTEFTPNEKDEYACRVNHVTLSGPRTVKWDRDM

- EC50 of human CD8+ T cell proliferation (Ki67+) in human PBMCs [1]: 12.7 µg/mL
- EC50 of human NK-cell proliferation (Ki67+) in human PBMCs [1]: 1.2 µg/mL
- potency on human CD8+ terminal effector T cells (Ki67 proliferation), fold lower than recombinant wild-type IL-15 [1]: ~900 fold
- potency on human CD8+ terminal effector T cells (Ki67 proliferation), fold lower than wild-type IL-15/wild-type IL-15Rα heterodimer Fc fusion XENP22853 [1]: ~400 fold
- EC50 of CD8+ T cell proliferation in cynomolgus monkey PBMCs [2]: 3.8 µg/mL
- EC50 of NK-cell proliferation in cynomolgus monkey PBMCs [2]: 0.5 µg/mL
- binding result [3]: no binding
- binding result [4]: binds
- binding result [5]: binds
- binding result [6]: binds
B1: XENP24306 (Fc fusion)
chain 1: NWVNVISDLKKIEDLIQSMHIDATLYTESNVHPSCKVTAMKCFLLELQVISLESGDASIHDTVQDLIILANNSLSSNGNVTESGCKECEELEEKNIKEFLQSFVHIVQMFINTSGGGGSEPKSSDKTHTCPPCPAPPVAGPSVFLFPPKPKDTLMISRTPEVTCVVVDVKHEDPEVKFNWYVDGVEVHNAKTKPREEEYNSTYRVVSVLTVLHQDWLNGKEYKCKVSNKALPAPIEKTISKAKGQPREPQVYTLPPSREEMTKNQVSLTCDVSGFYPSDIAVEWESDGQPENNYKTTPPVLDSDGSFFLYSKLTVDKSRWEQGDVFSCSVLHEALHSHYTQKSLSLSPGK
chain 2: ITCPPPMSVEHADIWVKSYSLYSRERYICNSGFKRKAGTSSLTECVLNKATNVAHWTTPSLKCIRGGGGSEPKSSDKTHTCPPCPAPPVAGPSVFLFPPKPKDTLMISRTPEVTCVVVDVKHEDPEVKFNWYVDGVEVHNAKTKPREEQYNSTYRVVSVLTVLHQDWLNGKEYKCKVSNKALPAPIEKTISKAKGQPREPQVYTLPPSREQMTKNQVKLTCLVKGFYPSDIAVEWESNGQPENNYKTTPPVLDSDGSFFLYSKLTVDKSRWQQGNVFSCSVLHEALHSHYTQKSLSLSPGK
notes: Never tested alone: every experiment used a combination of XENP24306 (~82%) and XENP32803 (~18%); Each result of the combination is written once for each of the two proteins; also called IL15/IL15Rα heterodimeric protein; XENP24306+XENP32803 (about 82% of the tested combination); copies: 1 + 1

- EC50 of human CD8+ T cell proliferation (Ki67+) in human PBMCs [1]: 12.7 µg/mL
- EC50 of human NK-cell proliferation (Ki67+) in human PBMCs [1]: 1.2 µg/mL
- potency on human CD8+ terminal effector T cells (Ki67 proliferation), fold lower than recombinant wild-type IL-15 [1]: ~900 fold
- potency on human CD8+ terminal effector T cells (Ki67 proliferation), fold lower than wild-type IL-15/wild-type IL-15Rα heterodimer Fc fusion XENP22853 [1]: ~400 fold
- EC50 of CD8+ T cell proliferation in cynomolgus monkey PBMCs [2]: 3.8 µg/mL
- EC50 of NK-cell proliferation in cynomolgus monkey PBMCs [2]: 0.5 µg/mL
- binding result [3]: no binding
- binding result [4]: binds
- binding result [5]: binds
- binding result [6]: binds
B2: XENP32803 (Fc fusion)
chain 1: B1 chain 1
chain 2: B1 chain 2 with K100T
notes: Never tested alone: every experiment used a combination of XENP24306 (~82%) and XENP32803 (~18%); Each result of the combination is written once for each of the two proteins; also called IL15/IL15Rα heterodimeric protein; XENP24306+XENP32803 (about 18% of the tested combination); copies: 1 + 1
